Test results taken from patent US20200347127A1 (CRESCENDO BIOLOGICS, published 2020).
Positions count from the first letter of the chain named. “And” between values parts separate entries of the source, which are not always exact repeats. Equal entries are not always repeated. Where two headings read alike, the source gives them in different places.

T1: IL-17C (UniProt Q9P0M4 19-197, limits assumed)
T1 sequence (looked up): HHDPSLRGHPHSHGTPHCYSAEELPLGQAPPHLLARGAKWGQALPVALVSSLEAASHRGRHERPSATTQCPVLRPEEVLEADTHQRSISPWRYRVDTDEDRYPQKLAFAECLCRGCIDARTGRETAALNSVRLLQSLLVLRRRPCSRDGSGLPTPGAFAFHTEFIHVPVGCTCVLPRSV

T2: IL-17F (UniProt Q96PD4 31-163, limits assumed)
T2 sequence (looked up): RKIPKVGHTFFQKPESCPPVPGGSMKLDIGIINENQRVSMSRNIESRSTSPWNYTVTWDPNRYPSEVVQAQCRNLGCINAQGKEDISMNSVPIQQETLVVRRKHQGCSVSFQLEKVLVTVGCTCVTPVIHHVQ

T3: murine IL-17A (murine, UniProt Q62386 26-158, limits assumed)
T3 sequence (looked up): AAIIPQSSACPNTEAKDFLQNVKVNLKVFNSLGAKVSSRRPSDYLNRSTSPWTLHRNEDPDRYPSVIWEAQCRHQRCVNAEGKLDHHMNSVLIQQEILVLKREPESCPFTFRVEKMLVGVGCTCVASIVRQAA

B1: Clone 3.11 (VHH)
VHH: QVQLVQSGAEVKKPGASVKVSCKASGYNFDAYHINWVRQAPGQGLEWMGSIKPNSGATKYAQKFQGRVTITRDTSISTAYMELSRLRSDDTAVYYCASLDRDTWYPHSYFGWFDSWGQGTLVTVSS
notes: Human single VH domain
B2: Clone 3.9 (VHH)
VHH: B1 VHH with L99M, T103Y, W104Y, Y105D, P106T, H107S, S108G
notes: Human single VH domain
B3: Clone 3.13 (VHH)
VHH: B1 VHH with F110A
notes: Human single VH domain
B4: Clone 1.8 (VHH)
VHH: QVQLVESGGGLVQPGGSLRLSCAASGFTFSSYGMYWVRQAPGKGLEWVAKIEQDGSEKYYVDSVKGRFTISRDNAKNSLFLQMNSLRAEDTAVYYCAKGEILPLYFDYWGQGTLVTVSS
notes: Human single VH domain
B5: Clone 1.9 (VHH)
VHH: B4 VHH with K50E, E52K, F80Y
notes: Human single VH domain
B6: Clone 1.11 (VHH)
VHH: B4 VHH with Q1E, G33Q, K50S, E52K, K58E
notes: Human single VH domain
B7: Clone 1.12 (VHH)
VHH: B4 VHH with K58E, F80Y
notes: Human single VH domain
B8: Clone 1.13 (VHH)
VHH: B4 VHH with Q1E, K50S, F80Y
notes: Human single VH domain
B9: Clone 1.14 (VHH)
VHH: B4 VHH with Q1E, P14R, G33R, K50S, K58E, N77K
notes: Human single VH domain
B10: Clone 1.22 (VHH)
VHH: B4 VHH with Q1E, Q13R, K58E, N77K, F80Y
notes: Human single VH domain
B11: VH 1.3.1 (clone 1.3 expressed from phagemid vector: with linker residues and His tag) (VHH)
VHH: B4 VHH with Q1E, G33S, K50E, E52K, E57V, K58Q, F80Y
notes: Human single VH domain; also called Clone 1.3 prep 1; Clone 1.3 prep 2
B12: VH 1.16.1 (clone 1.16 expressed from phagemid vector: with linker residues and His tag) (VHH)
VHH: B4 VHH with Q1E, G33S, K50E, E52K, K58Q, F80Y, S85G
notes: Human single VH domain
B13: VH 1.17.1 (clone 1.17 expressed from phagemid vector: with linker residues and His tag) (VHH)
VHH: EVQLVESGGGLVQPGGSLRLSCAASGFTFSSYSMYWVRQAPGKGLEWVAEIKPTGSVQYYVSDVKGRFTISRDNAKNSLYLQMNSLRAEDTAVYYCAKGEILPLYFDYWGQGTLVTVSS
notes: Human single VH domain
B14: VH 1.18.1 (clone 1.18 expressed from phagemid vector: with linker residues and His tag) (VHH)
VHH: B13 VHH with P53Q, T54D, S62G, D63G
notes: Human single VH domain
B15: VH 1.19.1 (clone 1.19 expressed from phagemid vector: with linker residues and His tag) (VHH)
VHH: B4 VHH with Q1E, A24T, K50E, E52K, F80Y
notes: Human single VH domain
B16: VH 1.20.1 (clone 1.20 expressed from phagemid vector: with linker residues and His tag) (VHH)
VHH: B4 VHH with Q1E, K58E, V61A, N77K, F80Y
notes: Human single VH domain
B17: VH 1.21.1 (clone 1.21 expressed from phagemid vector: with linker residues and His tag) (VHH)
VHH: B13 VHH with Q13L, P53Q, T54D, V57E, S62D, D63S
notes: Human single VH domain
B18: Clone 1.15 (VHH)
VHH: B13 VHH with K52R, P53Q, T54D, V57E, S62D, D63S
notes: Human single VH domain
B19: Clone 3.3 (VHH)
VHH: QVQLVQSGAEVKKPGASVKVSCAASGYTFTDYYLHWVRQAPGQGLEWMGWINPNTGTTKYAREFEGRVTMTRDTSISTAYMELSRLRSDDTAVYYCASMDRDYYDTSGYFGWFDSWGQGTLVTVSS
notes: Human single VH domain
B20: Clone 3.5 (VHH)
VHH: B19 VHH with M99L, Y103W, Y104R, D105S, T106P, S107N, G108D
notes: Human single VH domain
B21: Clone 3.6 (VHH)
VHH: B19 VHH with M99L, Y103W, Y104R, D105S, T106P, S107N, G108D, F110Y
notes: Human single VH domain
B22: VH 1.2.2 (+HIS) (VHH)
VHH: B13 VHH with P53Q, T54D
notes: also called 1.2.2 (clone 1.2 with C terminal extension and His tag)
B23: VH 1.2.3 (clone 1.2 with C terminal extension) (VHH)
VHH: B13 VHH with P53Q, T54D
notes: Human single VH domain

Assays:
recombinant human IL-17A [1] = molecular target: T4, recombinant human IL-17A (human, UniProt Q16552 24-155); test: cell-based or functional assay
T4 sequence (Q16552 24-155): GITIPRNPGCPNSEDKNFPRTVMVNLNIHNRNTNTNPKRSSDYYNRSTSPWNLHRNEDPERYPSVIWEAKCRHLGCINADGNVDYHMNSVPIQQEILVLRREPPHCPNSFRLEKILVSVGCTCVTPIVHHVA

recombinant human IL-17A [2] = molecular target: T4, recombinant human IL-17A; test: competition ELISA, IL-17A binding to coated IL-17RA-Fc
recombinant human IL-17A [3] = molecular target: T4, recombinant human IL-17A; test: SPR (BIAcore T200), IL-17A coupled to CM5 chip, single-cycle kinetics
recombinant human IL-17A [4] = molecular target: T4, recombinant human IL-17A; test: cell-based or functional assay; remark: listed apart in the source
recombinant human IL-17A [5] = molecular target: T4, recombinant human IL-17A; test: SPR (BIAcore T200), IL-17A coupled to CM5 chip, single-cycle kinetics; remark: listed apart in the source
recombinant IL-17RA-Fc = molecular target: T5, recombinant IL-17RA-Fc (UniProt Q96F46 33-320); test: specificity ELISA on coated antigen, VH concentration not given
T5 construct: Bought reagent; also called R & D systems cat #177-IR-100; receptor; not shown: Fc part of the bought fusion, not described

IL-17C = molecular target: T1, IL-17C; test: as above
IL-17F = molecular target: T2, IL-17F; test: as above
murine IL-17A = molecular target: T3, murine IL-17A; test: as above
recombinant human IL-17A [6] = molecular target: T4, recombinant human IL-17A; test: BIAcore single-cycle kinetics on immobilised IL-17A, 1:1 binding fit

Binder | Cell assay IC50 (nM), IL-17A-induced IL6 release from HT1080 (recombinant human IL-17A [4]) [nM] | Kd (recombinant human IL-17A [5]) | koff (recombinant human IL-17A [5]) | kon (recombinant human IL-17A [5]) | further results
B1 |  |  |  |  | Cell assay IC50 (nM), IL-17A-induced IL6 release from HT1080 (recombinant human IL-17A [1]): 17 nM; IC50 (recombinant human IL-17A [2]): 8 nM; Kd (recombinant human IL-17A [3]): 0.44 nM; koff (recombinant human IL-17A [3]): 0.000237 s⁻¹; kon (recombinant human IL-17A [3]): 538000 M⁻¹ s⁻¹
B2 |  |  |  |  | Cell assay IC50 (nM), IL-17A-induced IL6 release from HT1080 (recombinant human IL-17A [1]): 182 nM; IC50 (recombinant human IL-17A [2]): 43 nM; Kd (recombinant human IL-17A [3]): 21 nM; koff (recombinant human IL-17A [3]): 0.00201 s⁻¹; kon (recombinant human IL-17A [3]): 96400 M⁻¹ s⁻¹
B3 |  |  |  |  | Cell assay IC50 (nM), IL-17A-induced IL6 release from HT1080 (recombinant human IL-17A [1]): 5 nM; IC50 (recombinant human IL-17A [2]): 2 nM; Kd (recombinant human IL-17A [3]): 0.197 nM; koff (recombinant human IL-17A [3]): 0.000201 s⁻¹; kon (recombinant human IL-17A [3]): 1.02e+06 M⁻¹ s⁻¹
B4 | 1.2 | 0.616 nM | 0.000429 s⁻¹ | 697000 M⁻¹ s⁻¹ | 
B5 | 2.4 | 0.529 nM | 0.000464 s⁻¹ | 877000 M⁻¹ s⁻¹ | 
B6 | 1.5 | 0.845 nM | 0.000521 s⁻¹ | 617000 M⁻¹ s⁻¹ | 
B7 | 1.4 | 0.724 nM | 0.00053 s⁻¹ | 732000 M⁻¹ s⁻¹ | 
B8 | 1.2 | 0.84 nM | 0.000515 s⁻¹ | 614000 M⁻¹ s⁻¹ | 
B9 | 2.9 | 0.913 nM | 0.000688 s⁻¹ | 753000 M⁻¹ s⁻¹ | 
B10 | 3.25 | 0.223 nM | 0.000126 s⁻¹ | 565000 M⁻¹ s⁻¹ | 
B11 |  | 0.627 nM and 0.23 nM | 0.000501 s⁻¹ and 0.000222 s⁻¹ | 799000 M⁻¹ s⁻¹ and 964000 M⁻¹ s⁻¹ | binding result (recombinant IL-17RA-Fc): no binding; binding result (IL-17C): no binding; binding result (IL-17F): no binding; binding result (murine IL-17A): binds
B12 | 1.4 | 0.216 nM | 0.000213 s⁻¹ | 986000 M⁻¹ s⁻¹ | binding result (recombinant IL-17RA-Fc): no binding; binding result (IL-17C): no binding; binding result (IL-17F): no binding
B13 | 1.91 | 0.5 nM | 0.000462 s⁻¹ | 923000 M⁻¹ s⁻¹ | 
B14 | 1.04 | 0.366 nM | 0.000479 s⁻¹ | 1.31e+06 M⁻¹ s⁻¹ | 
B15 | 1.2 | 0.215 nM | 0.000153 s⁻¹ | 714000 M⁻¹ s⁻¹ | binding result (recombinant IL-17RA-Fc): no binding; binding result (IL-17C): no binding; binding result (IL-17F): no binding; binding result (murine IL-17A): binds
B16 | 2.03 | 0.244 nM | 0.000208 s⁻¹ | 851000 M⁻¹ s⁻¹ | binding result (recombinant IL-17RA-Fc): no binding; binding result (IL-17C): no binding; binding result (IL-17F): no binding; binding result (murine IL-17A): binds
B17 | 2.05 | 0.259 nM | 0.000205 s⁻¹ | 792000 M⁻¹ s⁻¹ | 
B18 | 2.5 | 0.232 nM | 0.000242 s⁻¹ | 1.04e+06 M⁻¹ s⁻¹ | binding result (recombinant IL-17RA-Fc): no binding; binding result (IL-17C): no binding; binding result (IL-17F): no binding; binding result (murine IL-17A): binds
B19 |  |  |  |  | Cell assay IC50 (nM), IL-17A-induced IL6 release from HT1080 (recombinant human IL-17A [1]): 106 nM; IC50 (recombinant human IL-17A [2]): 271 nM; Kd (recombinant human IL-17A [3]): 29 nM; koff (recombinant human IL-17A [3]): 0.00285 s⁻¹; kon (recombinant human IL-17A [3]): 99800 M⁻¹ s⁻¹
B20 |  |  |  |  | Cell assay IC50 (nM), IL-17A-induced IL6 release from HT1080 (recombinant human IL-17A [1]): 26 nM; IC50 (recombinant human IL-17A [2]): 4 nM; Kd (recombinant human IL-17A [3]): 2.2 nM; koff (recombinant human IL-17A [3]): 0.000619 s⁻¹; kon (recombinant human IL-17A [3]): 281000 M⁻¹ s⁻¹
B21 |  |  |  |  | Cell assay IC50 (nM), IL-17A-induced IL6 release from HT1080 (recombinant human IL-17A [1]): 28 nM; IC50 (recombinant human IL-17A [2]): 3 nM; Kd (recombinant human IL-17A [3]): 0.838 nM; koff (recombinant human IL-17A [3]): 0.00048 s⁻¹; kon (recombinant human IL-17A [3]): 573000 M⁻¹ s⁻¹
B22 |  |  |  |  | Kd (recombinant human IL-17A [6]): 0.55 nM; koff (recombinant human IL-17A [6]): 0.000485 s⁻¹; kon (recombinant human IL-17A [6]): 874000 M⁻¹ s⁻¹
B23 |  |  |  |  | Kd (recombinant human IL-17A [6]): 0.62 nM; koff (recombinant human IL-17A [6]): 0.000465 s⁻¹; kon (recombinant human IL-17A [6]): 748000 M⁻¹ s⁻¹
